For orientation: koff means a measure of how fast the partners let go of each other.

Substitutions are numbered along the chain they refer to.

The values below come from patent publication US20210054078A1.

The target in experiment [1] is Mouse PD-L1-HisTag (#50010-M08H, Sino Biological Inc.) (mouse) (UniProt Q9EP73). Put plainly: ELISA, scFv phage supernatant on coated His-tag PD-L1, anti-M13-HRP. Background: In an ELISA, binding on a coated surface is turned into a signal by an enzyme label.
The target in experiment [2] is Human PD-L1-HisTag (#10084-H08H, Sino Biological Inc.) (human) (UniProt Q9NZQ7). The experiment is described as above.
In experiment [3] the target is mouse PD-L1 (soluble protein of the kinetic measurements) (mouse) (UniProt Q9EP73). The experiment can be described thus: dissociation rate constant of scFv phage clone, method not named.
The target in experiment [4] is human PD-L1 (soluble protein of the kinetic measurements) (human) (UniProt Q9NZQ7). Described as above.
Experiment [5] has as its target human PD-L1 on hPD-L1/CHO-K1 overexpressing cells (human) (UniProt Q9NZQ7). Put plainly: flow cytometry, scFv phage supernatant on hPD-L1/CHO-K1 cells. For orientation: A flow cytometer gives signals particle by particle.

Sequence of mouse PD-L1 (soluble protein of the kinetic measurements) (mouse) (Q9EP73 19-238 limits assumed): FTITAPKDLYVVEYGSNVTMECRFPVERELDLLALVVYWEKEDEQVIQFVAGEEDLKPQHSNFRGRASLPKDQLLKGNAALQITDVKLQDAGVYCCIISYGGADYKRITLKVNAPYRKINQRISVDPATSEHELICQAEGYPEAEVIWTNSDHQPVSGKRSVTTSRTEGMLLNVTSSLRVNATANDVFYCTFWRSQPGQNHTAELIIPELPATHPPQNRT
Sequence of human PD-L1 (soluble protein of the kinetic measurements) (human) (Q9NZQ7 19-238 limits assumed): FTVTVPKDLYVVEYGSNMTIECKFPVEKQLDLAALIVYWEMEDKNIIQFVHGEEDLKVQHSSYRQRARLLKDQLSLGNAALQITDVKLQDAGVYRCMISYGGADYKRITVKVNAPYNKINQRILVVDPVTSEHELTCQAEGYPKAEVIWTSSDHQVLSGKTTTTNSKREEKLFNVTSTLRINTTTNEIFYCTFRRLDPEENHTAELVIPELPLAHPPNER
Sequence of human PD-L1 on hPD-L1/CHO-K1 overexpressing cells (human) (Q9NZQ7 19-290): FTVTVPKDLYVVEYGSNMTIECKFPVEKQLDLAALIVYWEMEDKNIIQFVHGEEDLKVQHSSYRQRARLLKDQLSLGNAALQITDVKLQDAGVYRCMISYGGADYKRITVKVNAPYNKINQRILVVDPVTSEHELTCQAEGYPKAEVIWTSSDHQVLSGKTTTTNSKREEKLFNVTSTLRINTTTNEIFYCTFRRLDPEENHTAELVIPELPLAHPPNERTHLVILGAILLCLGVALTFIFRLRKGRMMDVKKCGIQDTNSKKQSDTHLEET
Sequence of Mouse PD-L1-HisTag (#50010-M08H, Sino Biological Inc.) (mouse) (Q9EP73 19-238 limits assumed, stated change not applied): as the sequence (Q9EP73 19-238 limits assumed) above
Sequence of Human PD-L1-HisTag (#10084-H08H, Sino Biological Inc.) (human) (Q9NZQ7 19-238 limits assumed): as the sequence (Q9NZQ7 19-238 limits assumed) above

B1: ME4 scFv phage clone (scFv, V domains shown, part only)
VH: QVQLVESGAEVKKPGSSVKVSCKASGGTFNNYAVSWVRQAPGQGLEWMGRIIPILGIANYAQTFQGRVTITADKSTTTAYMELSSLRSEDTAVYYCARSYSGYAEGAFDIWGQGTMVTVSS
VL: QFVLTQPPSVSGAPGQRVTISCTGSSSNIGAGYDVHWYQQLPGTAPKVLIYGNSDRPSGVPDRFSGSKSGTSASLAITGLQGEDKATYYCQSYDSRLSGPVFGTGTKVTVLG
modifications: scFv linker not given; phage display
Consider B1, for which the OD450-630 in experiment [1] worked out at 1.44; in experiment [2], 1.66. Besides, the results for the koff in experiment [3] and in experiment [4] were 0.000374 s⁻¹ and 0.000186 s⁻¹, respectively.

B2: ME4.A11 scFv phage clone (scFv, V domains shown, part only)
VH: B1 VH with Y100R, S101G, E105H
VL: B1 VL
modifications: scFv linker not given
As for B2, the koff in experiment [3] came out at 0.000486 s⁻¹; in experiment [4], 7.86e-05 s⁻¹.

B3: ME4.B10 scFv phage clone (scFv, V domains shown, part only)
VH: B1 VH with Y100A, S101R, E105H
VL: B1 VL
modifications: scFv linker not given
Consider B3, for which the figures for the koff in experiment [3] and in experiment [4] were 0.000467 s⁻¹ and 0.00016 s⁻¹, respectively.

B4: ME4.A12 scFv phage clone (scFv, V domains shown, part only)
VH: B1 VH with Y100H, S101W, E105H
VL: B1 VL
modifications: scFv linker not given
In the case of B4, the values for the koff in experiment [3] and in experiment [4] were 0.00101 s⁻¹ and less than 1e-07 s⁻¹, respectively.

B5: ME4.A2 scFv phage clone (scFv, V domains shown, part only)
VH: B1 VH with Y100S, S101R, E105H
VL: B1 VL
modifications: scFv linker not given
On to B5, for which the koff in experiment [3] came to 0.000852 s⁻¹; in experiment [4], 0.000183 s⁻¹.

B6: ME4.B12 scFv phage clone (scFv, V domains shown, part only)
VH: B1 VH with Y100S, S101F, A104S, E105V
VL: B1 VL
modifications: scFv linker not given
For B6, the koff worked out at 0.000753 s⁻¹ in experiment [3] and 0.000177 s⁻¹ in experiment [4].

B7: 1G1.D8 scFv phage clone (scFv, part only; not given: scFv linker, part only)
scFv, part: QVQLVESGGGLVQPGRSLRLSCAASGFTFDDYAMHWVRQAPGKGLEWVSGISWNSGSIGYADSVKGRFTISRDNAKNSLYLQMNSLRAEDTAVYYCAKPRDISSWLGMDVWGQGTTVTVSSDIQMTQSPSSVSASVGDRVTITCRASQDISSWLAWYQQKPGKAPKLLIYAASSLQSGVPSRFSGSGSGTDFTLTISSLQPEDSATYYCQQTTNFPYTFGQGTKLEIKR
B7: the koff in experiment [4] was 0.000242 s⁻¹.

B8: 1G1 scFv phage clone (scFv, V domains shown, part only)
VH: QVQLVESGGGLVQPGRSLRLSCAASGFTFDDYAMHWVRQAPGKGLEWVSGISWNSGSIGYADSVKGRFTISRDNAKNSLYLQMNSLRAEDTAVYYCAKPRDISSWLGMDVWGQGTTVTVSS
VL: DIQMTQSPSSVSASVGDRVTITCRASQDISSWLAWYQQKPGKAPKLLIYAASSLQSGVPSRFSGSGSGTDFTLTISSLQPEDSATYYCQQTNNFPYTFGQGTKLEIKR
modifications: scFv linker not given; phage display
Turning to B8, the OD450-630 in experiment [1] was found to be 0.35. Moreover, in experiment [2], the OD450-630 stood at 1.38. The dissociation rate constant (koff) in experiment [4] was found to be 0.000152 s⁻¹. In experiment [5], this molecule yielded a % Gated in M1 of 99.4%; a Geo Mean in M1 of 184; a Geo Mean, all events of 181; a Mean in M1 of 248. In addition, the Mean, all events in experiment [5] is 246.

B9: 1G1.E12 scFv phage clone (scFv, V domains shown, part only)
VH: B8 VH
VL: B8 VL with N92V, N93T
modifications: scFv linker not given
In the case of B9, the koff in experiment [4] was found to be 0.000268 s⁻¹.
